This assay deals with GST-FL-UBQLN1 (full-length wild-type human UBQLN1 GST-fusion protein) (human, UniProt Q9UMX0 1-589). Description: pull-down.
Sequence of GST-FL-UBQLN1 (full-length wild-type human UBQLN1 GST-fusion protein) (Q9UMX0 whole entry, the tested form may be a part): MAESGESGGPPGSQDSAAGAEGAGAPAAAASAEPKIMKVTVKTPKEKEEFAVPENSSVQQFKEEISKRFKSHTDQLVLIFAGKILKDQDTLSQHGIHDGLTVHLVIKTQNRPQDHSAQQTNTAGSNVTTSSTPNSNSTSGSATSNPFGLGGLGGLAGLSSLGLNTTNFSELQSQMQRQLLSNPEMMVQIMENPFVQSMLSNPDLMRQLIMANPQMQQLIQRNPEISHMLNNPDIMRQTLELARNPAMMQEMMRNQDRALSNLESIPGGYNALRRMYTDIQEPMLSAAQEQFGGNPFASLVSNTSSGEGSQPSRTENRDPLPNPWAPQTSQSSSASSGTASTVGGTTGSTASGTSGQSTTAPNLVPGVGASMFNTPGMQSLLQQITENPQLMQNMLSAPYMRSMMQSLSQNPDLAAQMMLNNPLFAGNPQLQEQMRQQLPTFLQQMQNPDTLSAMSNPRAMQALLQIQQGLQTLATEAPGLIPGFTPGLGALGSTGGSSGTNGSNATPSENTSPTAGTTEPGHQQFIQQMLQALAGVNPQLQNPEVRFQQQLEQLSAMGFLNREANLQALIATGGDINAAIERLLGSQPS

B1: Full-length human S5a proteasome subunit, His-tagged (natural protein, UniProt P55036 1-377, looked up)
chain: MVLESTMVCVDNSEYMRNGDFLPTRLQAQQDAVNIVCHSKTRSNPENNVGLITLANDCEVLTTLTPDTGRILSKLHTVQPKGKITFCTGIRVAHLALKHRQGKNHKMRIIAFVGSPVEDNEKDLVKLAKRLKKEKVNVDIINFGEEEVNTEKLTAFVNTLNGKDGTGSHLVTVPPGPSLADALISSPILAGEGGAMLGLGASDFEFGVDPSADPELALALRVSMEEQRQRQEEEARRAAAASAAEAGIATTGTEDSDDALLKMTISQQEFGRTGLPDLSSMTEEEQIAYAMQMSLQGAEFGQAESADIDASSAMDTSEPAKEEDDYDVMQDPEFLQSVLENLPGVDPNNEAIRNAMGSLASQATKDGKKDKKEEDKK
Consider B1, for which the binding result is recorded as “binds”.
